This assay deals with monomeric gp120 from isolate BaL (HIV-1 clade B, isolate BaL (clone not …, UniProt Q6TAP7, strain)). The assay can be described thus: ELISA. For orientation: An ELISA detects its analyte on a solid surface through an enzyme-linked reagent.

B1: VRC01 FR3-03 (antibody, V domains shown)
VH: QVQLVQSGGQMKKPGESMRISCRASGYEFIDCTLNWIRLAPGKRPEWMGWLKPRGGAVNYARPLQGRVTMTRQLSQDPDDPDWGTAFLELRSLTVDDTAVYFCTRGKNCDYNWDFEHWGRGTPVIVGG
VL: EIVLTQSPGTLSLSPGETAIISCRTSQYGSLAWYQQRPGQAPRLVIYSGSTRAAGIPDRFSGSRWGPDYNLTISNLESGDFGVYYCQQYEFFGQGTKVQVG
Take B1: the binding result is “binds”.

The values are drawn from publication PMC6374468 (Nature Communications, 2019).
